B1: TadA: R. opacus PD630 heparin-binding hemagglutinin homolog, SEQ ID NO:11 (protein, listed as Rhodoccus opacus)
chain: MTDQKTIDSVKTSLYAAVGAGDVVVQAVADVVAQVRSRAESTQGDVEERVGGAKERIAGLQEEVTEGVENLRDRLAGLPSELPEELAELREKFTADELRKVAEAYLKVASDLYTSLAERGEDTVERIRKQPVVEEGIGRAETAFGDAVELTEEALGTVARQTRAVGEQAAKLAGRASGRISDTAEGLGEAIADAGDEAALKVLDLGDQAEEASKDAADRVAATAADVQAQADKAAQAKHAAPAKKAAPAKAAATPAPAPAKKVAAPAKKAAPAKKA
B2: TadD: R. opacus PD630 non-phosphorylating NAD(P)+-dependent glyceraldehyde 3-phosphate dehydrogenase homolog, SEQ ID NO:4 (protein, listed as Rhodoccus opacus)
chain: MSIAADSLSNITPPGLTIDGEITTTAAVIPVINPATESAFIEVPDAGVEQLDAAVSAARRAAKHWATHDLPFRQGIVLRLVDHVRANIDELARLVTLEQGKPLAKAAGEIESGLRGLERYASWDIPVEVIRDNDDELIEVHRAPVGVVGGITAWNYPLLLALWKIGPALITGNPIIVKPSPLTPVATLRLGELAQQILPPGVLQVLSGGDDLGRAMTAHTGIDKITFTGSERAGKSIMAGAGATLKRLTLELGGNDPGIVLDDVDVASIAADLYWGALSNCGQVCAGLKRLYVPQHLAPAIEEALAEVAKGVKVGNGLDDGVDMGPVQNAAQFTKVRGYVDDAANRGADVYFRGEVPEGPGYFHPVTLVRGVDDSVPLVREEQFGPVLPILTYTDIDDVIARANDSELALGASVWSSDEQRATEVAERVEAGTVWVNQHPMLSSDVPFGGVKQSGLGVEQSIHGVLEYTNYRVLRVKR

Columns and labels:
purified lipid bodies [1] = experiment: Lipid aggregation assay with purified lipid bodies; format: biochemical, R. opacus PD630
Procedure: Lipid bodies were purified from R. opacus PD630 as previously described (27) with minor modifications. Briefly, R. opacus was grown for 96 h in minimal media supplemented with 4% glucose and 0.15% ammonium sulphate. Cultures were harvested via centrifugation at 6000×g for 20 minutes. Cell pellets were resuspended in 25 ml of PBS and lysed by passing through a French pressure cell set at 18,000 psi 5 times. An equal volume of 80% glycerol was added to lysates followed by centrifugation at 6000×g for 3 h at 4° C. Following centrifugation, the upper layer (lipid body fraction) was removed to 40 ml of 40% glycerol (tube #1) and the pellet (cell debris) was resuspended in 40 ml of 40% glycerol (tube #2) followed by a second centrifugation at 6000×g for 3 h. The lipid body layer (upper layer) from tube #1 was removed to 20 ml PBS and the cell debris (pellet) from tube #2 was resuspended in 20 ml of PBS followed by centrifugation at 7500×g for 30 min. All fractions were then resuspended in 5 ml of PBS and used immediately. […] Wells were imaged using a Canon Powershot SD1200 IS digital camera (Canon, Lake Success, N.Y.). To obtain a more quantitative measure of aggregation, 2 μl of the supernatant was removed from each well and the optical density at 600 nm was determined using a Nano-Drop spectrophotometer (Thermo Scientific, Wilmington, Del.).

purified lipid bodies [2] = experiment: Western blotting of lipid bodies from the aggregation assay; format: binding, R. opacus PD630; details: supernatant and washed lipid body fractions
[3] = Heparin-sepharose binding
Procedure: Purified TadA was diluted to a final concentration of 500 μg/ml in dialysis buffer. 100 mg of Heparin-sepharose CL-6B (GE Healthcare, Piscataway, N.J.) was resuspended in 5 ml of Tris buffer (20 mM Tris (pH7.0), 100 mM NaCl) and allowed to rehydrate with gentle agitation for 1 h. Following rehydration, the resin was pelleted via centrifugation at 1000×g for 2 minutes and subsequently washed 3 times in the same buffer. The resin was resuspended in 1 ml of Tris buffer to which 500 μg of purified TadA was added. The Sepharose-TadA slurry was incubated at 4° C. for 1 h with gentle agitation. Following incubation, the resin was pelleted, an aliquot of the supernatant was removed (flow-through fraction), the Sepharose was washed 5 times with Tris buffer and an aliquot of the supernatant from the final wash was removed (wash fraction). The remaining heparin-sepharose was resuspended in 1 ml of Tris buffer from which an aliquot was removed (beads fraction). 5× SDS-PAGE loading buffer was added to each aliquot, which were then boiled for 5 min. Samples were resolved using 10% acrylamide Ready gel Tris-HCl SDS-PAGE gels (Bio-Rad, Hercules, Calif.) and stained using colloidal coomassie as previously described (18, 31).

yeast = experiment: Yeast agglutination assay; format: cell-based; details: FIG. 85
[4] = NAD(P)H-dependent glyceraldehyde 3-phosphate dehydrogenase (ND-G3PDH) activity assay; format: biochemical; details: purified histidine-tagged protein vs empty vector fractions; G3P and NAD(P)+
Procedure: NP-G3PDH activity was assayed as previously described with minor modifications (9). Briefly, reactions contained 1 mM NAD(P)+, 1 mM glyceraldehyde 3-phosphate and either […] of purified TadD or […] of crude bacterial lysate in a final volume of 1 ml. Reactions were incubated at 37° C. for one hour. Following incubation, the optical density of the reactions was measured at 340 nm. R. opacus cultures were grown in either lysogeny broth or MR medium supplemented with 4% glucose and 0.15% ammonium sulphate for 24 hours prior to mechanical disruption using a French pressure cell. Cellular debris was pelted by centrifugation at 20,000×g for 30 minutes.
Additionally, we fractionated supernatant from E. coli containing the parental plasmid which was used as an empty vector control. Fractions containing the histidine tagged TadD protein (and the corresponding fractions from the empty vector fractionation) were then used in ND-G3PDH activity assays.

Molecule	optical density at 600 nm of the supernatants (purified lipid bodies [1]; 2 μl supernatant from each well)	lipid body aggregation and flocculation (96 well dish) (purified lipid bodies [1]; increasing protein concentrations, 12 h room temperature)	size of lipid body aggregates (Nile Red fluorescent microscopy) (purified lipid bodies [1]; samples from the aggregation assay)	association with lipid bodies (anti-penta-histidine Western blot) (purified lipid bodies [2])	binding to heparin-sepharose in the presence of pure heparin ([3]; control with pure heparin)	binding to heparin-sepharose (SDS-PAGE of flow through, wash, beads) ([3]; purified hexa-histidine protein)	yeast agglutination (yeast)	NAD(P)H formation (increase in optical density at 340 nm) [4]
B1	decreases as protein concentration increases	capable of inducing lipid body aggregation and subsequent flocculation in a dose-dependent manner	aggregated into very large clumps	detected in both the supernatant as well as the lipid body fractions	completely abrogated any binding	the majority of the protein was found associated with the heparin-sepharose	yeast agglutination mediated by TadA	–
B2	–	–	–	–	–	–	–	significantly more NAD(P)H
